For orientation: Kd means the free concentration of one partner at which half of the binding sites on the other are occupied at equilibrium, for simple one-to-one binding. A low value points to higher affinity.

Residue numbers refer to the chain shown, from its start. Names and notes keep the numbering of the source.

Kd data for three molecules are collected here from patent US20230277625A1.

Sequences and labels used below:
B1: SEQ ID NO: 125 (human D2D IL-18 consensus hD2D-CS3), Q14116 37-193 (ligand)
chain: YFGKLESKLSVIRNLNGQVLFIDQGNRPLFADMESSDCRDNAPRTIFIISFYKDSQPRGLAVTISVKCEKISTLSCENKIISFKEMNPPDNIKDTKSDIIFFLRSVPGHDNKMQFESSSYEGYFLACEKERDLFKLILKKEDELGDRSIMFTVQNED
modifications: here or on the partner: biotin on the AviTag (BirA ligase)
B2: SEQ ID NO: 124 (human D2D IL-18 consensus hD2D-CS2), Q14116 37-193 (ligand)
chain: B1 chain with E34T, L60M
modifications: here or on the partner: biotin on the AviTag (BirA ligase)
B3: SEQ ID NO: 123 (human D2D IL-18 consensus hD2D-CS1), Q14116 37-193 (ligand)
chain: B1 chain with E34T, S35D, F51M, L60M
modifications: here or on the partner: biotin on the AviTag (BirA ligase)

The target in this assay is T1, Human IL-18Rα ectodomain (amino acids 19-329), biotinylated (human), Q13478.
T1 chain: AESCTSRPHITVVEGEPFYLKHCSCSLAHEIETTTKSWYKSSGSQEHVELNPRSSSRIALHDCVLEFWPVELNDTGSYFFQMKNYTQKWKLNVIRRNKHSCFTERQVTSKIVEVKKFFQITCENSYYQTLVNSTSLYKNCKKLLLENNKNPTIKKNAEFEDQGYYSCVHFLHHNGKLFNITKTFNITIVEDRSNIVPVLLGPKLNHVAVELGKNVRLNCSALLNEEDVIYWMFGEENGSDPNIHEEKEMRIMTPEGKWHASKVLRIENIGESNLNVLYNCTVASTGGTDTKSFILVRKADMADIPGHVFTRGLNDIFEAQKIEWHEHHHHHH
The experiment in a line: on-yeast binding isotherm (flow cytometry), drawn summary table, IL18Rα (KD). The following applies: remark: other sources report otherwise. (In general: A flow cytometer gives signals particle by particle.)
In the case of B1, the Kd is 9.7 µM.

B2: the Kd stood at 21 µM.

In turn, B3 yielded a Kd of 0.43 µM.
